Biological target: the molecule itself
Experiment: self-association: overnight incubation at 37 °C in pH neutral buffer, SDS-PAGE on a 4-20% gradient gel
Description: Protein preparations of the N-terminal (21.5 kDa) and C-terminal (18.5 kDa) were incubated at 4 μM concentration in pH neutral buffer and incubated overnight at 37° C.

B1: N-terminal portion of tau protein (amino acids 1-184) (other, UniProt P10636-8 1-184, looked up)
chain: MAEPRQEFEVMEDHAGTYGLGDRKDQGGYTMHQDQEGDTDAGLKESPLQTPTEDGSEEPGSETSDAKSTPTAEDVTAPLVDEGAPGKQAAAQPHTEIPEGTTAEEAGIGDTPSLEDEAAGHVTQARMVSKSKDGTGSDDKKAKGADGKTKIATPRGAAPPGQKGQANATRIPAKTPPAPKTPPS
notes: range 1-184; Printed mass 21.5 kDa, charge approximately -7.2; also called tau fragment (21.5 KD) that encompasses the N-terminus; N-terminal (21.5 kDa)
binding result: no binding (tested: 4 µM)
